One may read the Kd as the equilibrium constant for the complex coming apart. Higher therefore signals a looser complex.

This note sets out measurements from patent US6403769.

Experiment [1] addresses KGFR-HFc fusion protein (construct not specified). As to the kind of experiment: binding of 125I-KGF to KGFR-HFc in solution, capture on Gamma Bind G.
Experiment [2] has as its target keratinocyte growth factor receptor (KGFR) (UniProt P21803). As to the kind of experiment: competition with 125I-KGF on 32D cells expressing KGFR.
For experiment [3] the target is unchanged. As to the kind of experiment: cell-based or functional assay.

B1: keratinocyte growth factor (KGF) (ligand, human, UniProt P21781 32-194, looked up)
chain: CNDMTPEQMATNVNCSSPERHTRSYDYMEGGDIRVRRLFCRTQWYLRIDKRGKVKGTQEMKNNYNIMEIRTVAVGIVAIKGVESEFYLAMNKEGKLYAKKECNEDCNFKELILENHYNTYASAKWTHNGGEMFVALNQKGIPVRGKKTKKEQKTAHFLPMAIT
The molecule B1 gave a ligand concentration at which saturable binding was achieved in experiment [1] of 15 to 25 ng/mL. The Kd in experiment [2] came out at 0.13 nM. The same molecule gave a half-maximal stimulation of 3H-thymidine uptake in BALB/MK cells in experiment [3] of 10 pM.
